Data published in patent US20210122824A1 (ADAGENE, published 2021).
Numbering of substitutions follows the chain as printed.

B1: TY21418 (antibody, V domains shown)
VH: EVQLVESGGGLVQPGGSLRLSCAASGYTFSNYGIHWVRQAPGKGLEWIGWIYPSGGGTKYAQKFQGRVTISRDNSKNTLYLQLNSLRAEDTAVYYCAREGGGYGYALDYWGQGTLVTVSS
VL: DIQLTQSPSSLSASVGDRVTITCRASQGVSSYLAWYQQKPGKAPKLLIYDASNLETGVPSRFSGSGSGTDFTLTISSLQPEDFATYYCQQYDAWPYTFGQGTKVEIKR
notes: IgG1 (wild type) made from Fab B13002, from HEK293F cells
B2: TY21419 (antibody, V domains shown)
VH: B1 VH
VL: B1 VL with V29I, S31P, Y32W, L54R, E55A, V58I, A93S
notes: IgG1 (wild type) made from Fab B13004, from HEK293F cells
B3: TY21420 (antibody, V domains shown)
VH: EVQLVESGGGLVQPGGSLRLSCAASGYSISSGYYWGWIRQAPGKGLEWIGIIYPSGGGTNYAQKFQGRVTISRDNSKNTLYLQLNSLRAEDTAVYYCARGGGLGFDYWGQGTLVTVSS
VL: DIQLTQSPSSLSASVGDRVTITCRASQTIPSFLNWYQQKPGKAPKLLIYAASSLQSGVPSRFSGSGSGTDFTLTISSLQPEDFATYYCQHYTSWPRQFTFGQGTKVEIKR
notes: IgG1 (wild type) made from Fab B15016, from HEK293F cells

Key:
[1] = molecular target: mouse PD-L1 (construct not stated) (mouse, UniProt Q9EP73 19-238, limits assumed); assay: SPR (Biacore)
Chain of mouse PD-L1 (construct not stated) (Q9EP73 19-238 limits assumed): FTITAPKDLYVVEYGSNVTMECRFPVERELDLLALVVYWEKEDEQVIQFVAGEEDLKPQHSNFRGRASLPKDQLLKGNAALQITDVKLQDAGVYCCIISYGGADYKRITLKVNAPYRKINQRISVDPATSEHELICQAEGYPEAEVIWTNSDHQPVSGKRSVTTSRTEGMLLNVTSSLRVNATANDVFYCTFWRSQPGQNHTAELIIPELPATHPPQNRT

[2] = molecular target: T1, human PD1 expressed on HEK293F cells (human, UniProt Q15116 25-288); assay: flow cytometry on transfected HEK293F cells
T1 construct: whole, on cells
T1 sequence (Q15116 25-288): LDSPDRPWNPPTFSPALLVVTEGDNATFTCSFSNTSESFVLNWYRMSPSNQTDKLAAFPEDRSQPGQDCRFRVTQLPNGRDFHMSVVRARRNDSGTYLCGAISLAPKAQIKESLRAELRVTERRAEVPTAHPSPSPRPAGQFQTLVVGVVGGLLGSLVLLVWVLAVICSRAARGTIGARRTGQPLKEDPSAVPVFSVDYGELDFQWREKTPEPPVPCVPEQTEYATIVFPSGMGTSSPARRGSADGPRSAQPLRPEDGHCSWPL

[3] = molecular target: T2, human CTLA4 expressed on HEK293F cells (human, UniProt P16410 36-223); assay: flow cytometry on transfected HEK293F cells
T2 construct: whole, on cells
T2 sequence (P16410 36-223): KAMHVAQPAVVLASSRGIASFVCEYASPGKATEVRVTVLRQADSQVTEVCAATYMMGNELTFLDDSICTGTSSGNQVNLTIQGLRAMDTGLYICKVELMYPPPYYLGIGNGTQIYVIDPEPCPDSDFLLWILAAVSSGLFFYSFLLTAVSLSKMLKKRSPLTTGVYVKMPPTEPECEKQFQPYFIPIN

[4] = molecular target: T3, human LAG3 expressed on HEK293F cells (human, UniProt P18627 23-525); assay: flow cytometry on transfected HEK293F cells
T3 construct: whole, on cells
T3 sequence (looked up): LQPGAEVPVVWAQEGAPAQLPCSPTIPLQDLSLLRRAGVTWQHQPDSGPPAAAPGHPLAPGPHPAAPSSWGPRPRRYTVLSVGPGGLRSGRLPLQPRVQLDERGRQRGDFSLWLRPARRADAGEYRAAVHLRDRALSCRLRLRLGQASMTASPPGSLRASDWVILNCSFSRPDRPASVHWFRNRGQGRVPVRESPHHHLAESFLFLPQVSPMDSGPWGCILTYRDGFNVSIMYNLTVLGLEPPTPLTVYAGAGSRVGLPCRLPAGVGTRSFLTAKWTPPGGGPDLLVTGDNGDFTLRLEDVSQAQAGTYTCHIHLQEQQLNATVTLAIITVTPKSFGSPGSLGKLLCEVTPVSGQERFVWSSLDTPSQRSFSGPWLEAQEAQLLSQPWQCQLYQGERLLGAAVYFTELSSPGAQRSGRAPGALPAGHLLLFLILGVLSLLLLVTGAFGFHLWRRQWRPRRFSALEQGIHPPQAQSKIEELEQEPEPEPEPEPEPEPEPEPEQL

[5] = molecular target: T4, human TIM3 expressed on HEK293F cells (human, UniProt Q8TDQ0 22-301); assay: flow cytometry on transfected HEK293F cells
T4 construct: whole, on cells

[6] = molecular target: T5, human B7-H3 expressed on HEK293F cells (human, UniProt Q5ZPR3 29-534); assay: flow cytometry on transfected HEK293F cells
T5 construct: whole, on cells
T5 sequence (looked up): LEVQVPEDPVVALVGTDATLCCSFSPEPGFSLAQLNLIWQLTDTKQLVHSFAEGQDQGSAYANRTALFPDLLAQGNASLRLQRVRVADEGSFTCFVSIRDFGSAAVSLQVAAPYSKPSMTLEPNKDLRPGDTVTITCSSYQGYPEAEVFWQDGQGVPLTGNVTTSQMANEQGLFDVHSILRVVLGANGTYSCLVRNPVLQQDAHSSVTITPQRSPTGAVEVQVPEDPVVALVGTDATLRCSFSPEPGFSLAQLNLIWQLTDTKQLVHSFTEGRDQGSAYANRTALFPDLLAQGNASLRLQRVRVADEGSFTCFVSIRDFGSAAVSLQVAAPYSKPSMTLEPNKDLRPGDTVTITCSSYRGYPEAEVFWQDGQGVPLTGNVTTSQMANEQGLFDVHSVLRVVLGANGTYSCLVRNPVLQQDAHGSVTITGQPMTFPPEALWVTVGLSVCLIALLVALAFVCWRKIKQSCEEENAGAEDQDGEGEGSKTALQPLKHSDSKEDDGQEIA

[7] = molecular target: T6, rhesus PD-L1 expressed on HEK293F cells (rhesus, UniProt F6VEW6 19-290); assay: flow cytometry on transfected HEK293F cells, 100 nM antibody
T6 construct: whole, on cells

[8] = molecular target: T7, human PD-L1-His6 (Sino Biological #10084-H08H) (human, UniProt Q9NZQ7 19-239); assay: SPR (Biacore T200), antibody captured by anti-human Fc, PD-L1-His6 in solution
T7 construct: bought; not shown: His6 tag
T7 sequence (Q9NZQ7 19-239 limits assumed): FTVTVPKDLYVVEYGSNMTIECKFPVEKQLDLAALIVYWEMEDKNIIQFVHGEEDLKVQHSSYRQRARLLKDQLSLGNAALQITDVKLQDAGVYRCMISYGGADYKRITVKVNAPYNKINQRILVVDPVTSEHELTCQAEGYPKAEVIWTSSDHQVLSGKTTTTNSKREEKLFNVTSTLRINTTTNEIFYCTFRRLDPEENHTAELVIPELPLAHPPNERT

[9] = molecular target: T8, human PD-L1-Fc fusion protein (Sino Biological Cat #10084-H02H) (human, UniProt Q9NZQ7 19-239); assay: competition ELISA, PD1-Fc (1 ug/mL) coated, biotinylated PD-L1-Fc mixed with antibody, HRP neutravidin; blocked ligand PD1-Fc
T8 construct: bought; not shown: Fc part of the bought fusion
T8 sequence (Q9NZQ7 19-239 limits assumed): as above

[10] = molecular target: T9, human PD-L1 expressed on cell surface (human, UniProt Q9NZQ7 19-290); assay: flow cytometry, HEK293F cells transiently expressing the target, 100 nM antibody, PE anti-human Fc; Mean (PE-A against FITC-A, GFP surrogate)
T9 construct: whole, on cells; also called full-length human PD-L1; cell surface PD-L1
T9 sequence (Q9NZQ7 19-290): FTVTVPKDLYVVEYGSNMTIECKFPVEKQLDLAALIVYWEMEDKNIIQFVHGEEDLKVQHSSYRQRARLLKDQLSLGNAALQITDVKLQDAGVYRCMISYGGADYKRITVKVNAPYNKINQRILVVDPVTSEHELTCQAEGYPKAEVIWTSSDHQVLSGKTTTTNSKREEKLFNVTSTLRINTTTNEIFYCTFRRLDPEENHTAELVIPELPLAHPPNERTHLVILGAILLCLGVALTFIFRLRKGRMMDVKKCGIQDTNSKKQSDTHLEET

[11] = molecular target: T10, mouse PD-L1 expressed on HEK293F cells (mouse, UniProt Q9EP73 19-290); assay: as above
T10 construct: whole, on cells
T10 sequence (Q9EP73 19-290): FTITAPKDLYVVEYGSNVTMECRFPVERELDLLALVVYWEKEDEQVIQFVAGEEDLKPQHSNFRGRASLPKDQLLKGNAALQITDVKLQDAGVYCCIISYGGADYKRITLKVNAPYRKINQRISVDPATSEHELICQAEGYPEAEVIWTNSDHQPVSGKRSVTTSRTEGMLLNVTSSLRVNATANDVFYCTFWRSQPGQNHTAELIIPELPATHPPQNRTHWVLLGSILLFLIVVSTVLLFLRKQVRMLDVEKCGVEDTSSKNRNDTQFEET

[12] = molecular target: T1, human PD1 expressed on HEK293F cells; assay: as above
[13] = molecular target: T2, human CTLA4 expressed on HEK293F cells; assay: as above
[14] = molecular target: T3, human LAG3 expressed on HEK293F cells; assay: as above
[15] = molecular target: T4, human TIM3 expressed on HEK293F cells; assay: as above
[16] = molecular target: T9, human PD-L1 expressed on cell surface; assay: blocking by flow cytometry, HEK293F cells expressing full-length human PD-L1, 100 nM antibody then 100 nM biotinylated PD1-His (blocked ligand), Alexa fluor 633 streptavidin; isotype control panel Q2 35.1%
[17] = molecular target: T6, rhesus PD-L1 expressed on HEK293F cells; assay: flow cytometry, HEK293F cells transiently expressing the target, 100 nM antibody, PE anti-human Fc; Mean (PE-A against FITC-A, GFP surrogate)
[18] = molecular target: T5, human B7-H3 expressed on HEK293F cells; assay: as above

| Binder | binding result [1] | binding result [2] | binding result [3] | binding result [4] | binding result [5] | binding result [6] | binding result [7] | Kd [8] [nM] | koff [8] [s⁻¹] | kon [8] [M⁻¹ s⁻¹] | IC50 (read off the curve) [9] [nM] | Mean [10] | Mean [11] | Mean [12] | Mean [13] | Mean [14] | Mean [15] | Q2 (percent of cells positive for GFP and for the APC signal of PD1-His, antibody present) [16] [%] | Mean [17] | Mean [18] |
| --- | --- | --- | --- | --- | --- | --- | --- | --- | --- | --- | --- | --- | --- | --- | --- | --- | --- | --- | --- | --- |
| B1 | no binding | no binding (tested: 100 nM) | no binding (tested: 100 nM) | no binding (tested: 100 nM) | no binding (tested: 100 nM) | no binding (tested: 100 nM) | binds | 0.399 | 0.000179 | 448000 | ~6 | 227000 | 2470 | 2570 | 3460 | 2830 | 2480 | 0.29 |  |  |
| B2 | no binding | no binding (tested: 100 nM) | no binding (tested: 100 nM) | no binding (tested: 100 nM) | no binding (tested: 100 nM) | no binding (tested: 100 nM) |  | 0.465 | 0.000143 | 307000 | ~6 | 219000 | 2500 | 3110 | 2330 | 3390 | 2310 | 0.58 | 201000 | 2380 |
| B3 |  | no binding (tested: 100 nM) | no binding (tested: 100 nM) | no binding (tested: 100 nM) | no binding (tested: 100 nM) | no binding (tested: 100 nM) |  |  |  |  | ~6 |  |  | 3710 | 4570 | 4630 | 4660 | 1.53 | 164000 | 3780 |
